According to patent publication US20080241126A1 (XOMA TECHNOLOGY, published 2008):

T1: Ep-CAM on the surface of HT-29 human colorectal carcinoma cells (human, UniProt P16422 24-314)
T1 construct: The gene was obtained from HT-29 mRNA; also called epithelial cell adhesion molecule; Ep-CAM expressing HT-29 cells
T1 sequence: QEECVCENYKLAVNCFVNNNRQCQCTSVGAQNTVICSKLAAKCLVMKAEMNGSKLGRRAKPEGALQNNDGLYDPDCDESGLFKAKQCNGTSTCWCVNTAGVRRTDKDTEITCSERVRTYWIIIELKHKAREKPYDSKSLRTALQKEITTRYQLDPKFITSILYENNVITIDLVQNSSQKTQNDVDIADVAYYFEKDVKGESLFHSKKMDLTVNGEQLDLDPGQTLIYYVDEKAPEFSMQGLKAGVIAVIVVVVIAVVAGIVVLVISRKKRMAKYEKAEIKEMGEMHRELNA

T2: soluble human Ep-CAM (human, UniProt P16422 24-265)
T2 construct: It was truncated by a stop codon at amino acid position 266 and secreted from CHO-K1 cells (pING1954, Clone 51); No signal peptide limits are stated; Multimers were seen on a non-reduced gel; also called sEp-CAM; truncated Ep-CAM
T2 sequence: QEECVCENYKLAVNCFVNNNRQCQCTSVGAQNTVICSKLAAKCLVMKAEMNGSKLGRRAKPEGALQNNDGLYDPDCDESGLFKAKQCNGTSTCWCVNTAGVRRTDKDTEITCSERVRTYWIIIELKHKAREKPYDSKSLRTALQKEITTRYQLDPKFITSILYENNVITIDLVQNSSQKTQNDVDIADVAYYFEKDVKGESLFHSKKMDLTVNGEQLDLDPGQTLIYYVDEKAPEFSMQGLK


Assays:
[1] = target: T1, Ep-CAM on the surface of HT-29 human …; assay: competition with 125I-labeled chimeric ING-1 on HT-29 cells
Description: Vectors constructed according to Example 1 encoding human engineered ING-1 light and heavy chain genes, for example, pING1937 (low risk human engineered ING-1) and pING1944 (low plus moderate risk human engineered ING-1) were linearized by XbaI and used to transfect serum-free adapted CHO-K1 followed by selection of G418-resistant transfectants. Protein was purified from shake flask culture supernatants by passage over a protein A column. To evaluate the binding activity of the produced immunoglobulin polypeptides, competition binding assays with the human carcinoma cell line HT-29 were performed. This colorectal carcinoma cell line expresses a molecule known as Ep-CAM on its surface. Ep-CAM is recognized by immunoglobulin polypeptides having the antigen binding specificity of the mouse-human chimeric ING-1 antibody produced by cell line HB9812 as produced by ATCC.
HT-29 cells were grown to confluency (˜2×10⁵ cells/well) in 96 well plates. Mouse-human chimeric ING-1 was labeled with Na¹²⁵I (Iodo-gen®, Pierce). The competition conditions included in a 100 μl assay volume, 0.1 nM labeled mouse-human chimeric ING-1, 2-fold serial dilutions of unlabeled immunoglobulin polypeptides, for example, as produced by cells transfected with pING1937 and pING1944. […] Labeled cells were removed with NaOH and counted. […]

soluble human Ep-CAM = target: T2, soluble human Ep-CAM; assay: ELISA, soluble Ep-CAM coated at 0.25 ug/mL, detection with AP-goat anti-human IgG
[2] = target: T1, Ep-CAM on the surface of HT-29 human …; assay: competition binding on HT-29 cells (FIG. 16)
Protocol: HT-29 cells were grown to confluency (˜2×10⁵ cells/well) in 96 well plates. Mouse-human chimeric ING-1 was labeled with Na¹²⁵I (Iodo-gen®, Pierce). The competition conditions included in a 100 μl assay volume, 0.1 nM labeled mouse-human chimeric ING-1, 2-fold serial dilutions of unlabeled immunoglobulin polypeptides, for example, as produced by cells transfected with pING1937 and pING1944. The labeled and unlabeled immunoglobulin polypeptides were incubated with HT-29 cells at 4° C. for 5 hours followed by washing. Labeled cells were removed with NaOH and counted. Data analysis was performed using Ligand, [Munson and Redbard, […] 107: 220-239 (1980)].
Human engineered ING-1 modified at the low risk plus moderate risk positions was also evaluated using competition binding assays. No differences in binding between the mouse-human chimeric and the human engineered (low risk) ING-1 was observed.

[3] = target: T1, Ep-CAM on the surface of HT-29 human …; assay: competition with iodinated low risk ING-1 on HT-29 cells (FIG. 17)

Binder	binding result [1]	binding result [3]	other results
human engineered (low risk) ING-1 (antibody, human IgG1, kappa, It has 6 low risk changes in VL and 13 in VH; also called human engineered ING-1; ING-1(heMab)) VL: DIVMTQSALSNPVTLGESGSISCRSSKSLLHSNGITYLYWYLQKPGQSPQLLIYQMSNRASGVPDRFSSSGSGTDFTLKISRVEAEDVGVYYCAQNLELPRTFGQGTKLEMKRTVAAPSVFIFPPSDEQLKSGTASVVCLLNNFYPREAKVQWKVDNALQSGNSQESVTEQDSKDSTYSLSSTLTLSKADYEKHKVYACEVTHQGLSSPVTKSFNRGEC VH: not shown	binds	–	binding result (soluble human Ep-CAM): binds
human engineered (low plus moderate risk) ING-1 (antibody, human IgG1, kappa, IgG with human kappa and gamma-1 constant regions, built like pING1937; It has 10 low plus moderate risk changes in VL and 20 in VH; also called product of pING1944) VL: DIVMTQSPLSLPVTPGEPGSISCRSSKSLLHSNGITYLYWYLQKPGQSPQLLIYQMSNRASGVPDRFSSSGSGTDFTLKISRVEAEDVGVYYCAQNLELPRTFGQGTKLEMKRTVAAPSVFIFPPSDEQLKSGTASVVCLLNNFYPREAKVQWKVDNALQSGNSQESVTEQDSKDSTYSLSSTLTLSKADYEKHKVYACEVTHQGLSSPVTKSFNRGEC VH: not shown	–	–	binding result [2]: binds
modified ING-1 with low plus moderate risk light chain and low risk heavy chain (antibody, human IgG1, kappa, It is an IgG purified on protein A with human kappa and gamma-1 constant regions; also called low risk heavy chain with a low plus moderate risk light chain) VL: DIVMTQSPLSLPVTPGEPGSISCRSSKSLLHSNGITYLYWYLQKPGQSPQLLIYQMSNRASGVPDRFSSSGSGTDFTLKISRVEAEDVGVYYCAQNLELPRTFGQGTKLEMKRTVAAPSVFIFPPSDEQLKSGTASVVCLLNNFYPREAKVQWKVDNALQSGNSQESVTEQDSKDSTYSLSSTLTLSKADYEKHKVYACEVTHQGLSSPVTKSFNRGEC VH: not shown	–	binds	–
modified ING-1 with low risk light chain and low plus moderate risk heavy chain (antibody, human IgG1, kappa, It is an IgG purified on protein A with human kappa and gamma-1 constant regions; also called combination of a low risk light chain with a low plus moderate risk heavy chain) VL: DIVMTQSALSNPVTLGESGSISCRSSKSLLHSNGITYLYWYLQKPGQSPQLLIYQMSNRASGVPDRFSSSGSGTDFTLKISRVEAEDVGVYYCAQNLELPRTFGQGTKLEMKRTVAAPSVFIFPPSDEQLKSGTASVVCLLNNFYPREAKVQWKVDNALQSGNSQESVTEQDSKDSTYSLSSTLTLSKADYEKHKVYACEVTHQGLSSPVTKSFNRGEC VH: not shown	–	binds	–
mouse-human chimeric ING-1 antibody (as produced by cell line HB9812, ATCC) (antibody, human IgG1, kappa, V domains shown, The labelled tracer form was iodinated with Na125I) VH: QIQLVQSGPELKKPGETVKISCKASGYTFTKYGMNWVKQAPGKGLKWMGWINTYTEEPTYGDDFKGRFAFSLETSASTANLQINNLKSEDTATYFCARFGSAVDYWGQGTSVTVSS VL: DIVMTQAAFSNPVTLGTSGSISCRSSKSLLHSNGITYLYWYLQKPGQSPQLLIYQMSNLASGVPDRFSSSGSGTDFTLRISRVEAEDVGVYYCAQNLELPRTFGGGTKLEMKR	binds	–	–
